Patent publication US20070202045A1
Bridges are numbered along the chain shown (N, C = ends). Where no end group is shown, it is not given here.

How the values were obtained:
mouse albumin (mouse) [1] = biological target: mouse albumin (mouse) (UniProt P07724); assay: direct binding ELISA, immobilized albumin
rabbit albumin (rabbit) = rabbit albumin (rabbit) (UniProt P49065); assay: direct binding ELISA, immobilized albumin
rat albumin (rat) [2] = biological target: rat albumin (rat) (UniProt P02770); assay: direct binding ELISA, immobilized albumin
mouse albumin (mouse) [3] = biological target: mouse albumin (mouse) (UniProt P07724); assay: solution binding ELISA (Scatchard)
rat albumin (rat) [4] = biological target: rat albumin (rat) (UniProt P02770); assay: solution binding ELISA (Scatchard)
rat albumin (rat) [5] = biological target: rat albumin (rat) (UniProt P02770); assay: Kd for albumin as listed with the PK data (solution binding ELISA)
mouse albumin (mouse) [6] = biological target: mouse albumin (mouse) (UniProt P07724); assay: solution binding ELISA; end of the range tied by Table 14 (41 nM)

Sequence of mouse albumin (mouse) (P07724 25-608 limits assumed): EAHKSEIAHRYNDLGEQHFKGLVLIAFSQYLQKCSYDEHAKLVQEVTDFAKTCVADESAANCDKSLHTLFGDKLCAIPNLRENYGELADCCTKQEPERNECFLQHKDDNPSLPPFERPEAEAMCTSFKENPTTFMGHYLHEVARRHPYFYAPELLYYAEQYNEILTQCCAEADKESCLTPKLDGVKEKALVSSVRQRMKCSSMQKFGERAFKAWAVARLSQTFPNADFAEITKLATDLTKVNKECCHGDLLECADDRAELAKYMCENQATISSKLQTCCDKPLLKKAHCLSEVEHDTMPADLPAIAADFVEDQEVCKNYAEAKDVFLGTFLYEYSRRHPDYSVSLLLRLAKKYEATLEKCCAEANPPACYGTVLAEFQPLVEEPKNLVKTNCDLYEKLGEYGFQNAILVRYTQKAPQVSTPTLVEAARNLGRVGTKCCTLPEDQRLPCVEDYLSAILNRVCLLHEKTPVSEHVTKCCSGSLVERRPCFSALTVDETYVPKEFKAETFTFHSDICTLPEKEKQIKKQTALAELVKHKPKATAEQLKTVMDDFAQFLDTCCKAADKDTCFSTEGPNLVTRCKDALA
Sequence of rat albumin (rat) (P02770 25-608 limits assumed): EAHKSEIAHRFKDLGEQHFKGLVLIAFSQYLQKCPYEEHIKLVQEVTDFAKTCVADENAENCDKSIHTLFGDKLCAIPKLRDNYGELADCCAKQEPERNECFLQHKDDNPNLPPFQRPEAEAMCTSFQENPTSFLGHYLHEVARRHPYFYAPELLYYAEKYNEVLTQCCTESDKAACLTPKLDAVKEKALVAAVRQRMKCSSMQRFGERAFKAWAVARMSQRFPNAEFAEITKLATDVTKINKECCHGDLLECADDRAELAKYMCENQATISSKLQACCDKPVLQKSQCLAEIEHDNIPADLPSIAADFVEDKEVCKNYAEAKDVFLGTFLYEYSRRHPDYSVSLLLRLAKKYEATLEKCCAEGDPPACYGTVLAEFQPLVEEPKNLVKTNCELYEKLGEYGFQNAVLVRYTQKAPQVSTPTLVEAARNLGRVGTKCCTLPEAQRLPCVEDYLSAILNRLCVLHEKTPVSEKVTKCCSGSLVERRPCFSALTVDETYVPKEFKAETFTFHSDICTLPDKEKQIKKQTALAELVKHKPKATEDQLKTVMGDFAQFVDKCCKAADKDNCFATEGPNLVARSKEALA
Sequence of rabbit albumin (rabbit) (P49065 25-608 limits assumed): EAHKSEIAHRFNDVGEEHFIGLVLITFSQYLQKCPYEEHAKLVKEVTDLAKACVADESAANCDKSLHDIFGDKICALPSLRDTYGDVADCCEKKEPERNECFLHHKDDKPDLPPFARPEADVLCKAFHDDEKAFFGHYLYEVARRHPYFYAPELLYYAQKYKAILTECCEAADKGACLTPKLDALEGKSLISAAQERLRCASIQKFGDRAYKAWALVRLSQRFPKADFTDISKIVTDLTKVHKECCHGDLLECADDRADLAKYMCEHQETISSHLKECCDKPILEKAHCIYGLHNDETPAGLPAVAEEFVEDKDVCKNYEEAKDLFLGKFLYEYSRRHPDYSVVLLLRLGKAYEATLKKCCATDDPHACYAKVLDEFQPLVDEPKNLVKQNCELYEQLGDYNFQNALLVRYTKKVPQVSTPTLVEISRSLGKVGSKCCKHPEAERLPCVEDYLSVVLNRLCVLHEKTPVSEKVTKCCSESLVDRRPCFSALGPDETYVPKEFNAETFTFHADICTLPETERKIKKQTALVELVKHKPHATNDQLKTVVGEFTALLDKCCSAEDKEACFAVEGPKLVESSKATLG

Binder	EC50 (mouse albumin (mouse) [1]) [nM]	EC50 (rabbit albumin (rabbit)) [nM]	EC50 (rat albumin (rat) [2]) [nM]	Kd (mouse albumin (mouse) [3]) [nM]	Kd (rat albumin (rat) [4]) [nM]	Kd (rat albumin (rat) [5]) [nM]	Kd (mouse albumin (mouse) [6]) [nM]
{Fab4D5 heavy chain (…CDKTH)}-DICLPRWGCL (Fab, part only; not given: Carrier Fab (trastuzumab), not shown: another chain or arm of the molecule; large carriers, disulfide 3-9) [AB.Fab4D5-H11]	> 2000	> 2000	> 1000	1250	2430	2500	
{Fab4D5 heavy chain (…CDKTH)}-DICLPRWGCLW (Fab, part only; not given: carrier Fab4D5 heavy and light chains, not shown: another chain or arm of the molecule; large carriers, disulfide 3-9) [AB.Fab4D5-H10]		> 2000	8				

Binders with a lower EC50 (rabbit albumin (rabbit)), results first:

EC50 (mouse albumin (mouse) [1]) [nM]	EC50 (rabbit albumin (rabbit)) [nM]	EC50 (rat albumin (rat) [2]) [nM]	Kd (mouse albumin (mouse) [3]) [nM]	Kd (rat albumin (rat) [4]) [nM]	Kd (rat albumin (rat) [5]) [nM]	Kd (mouse albumin (mouse) [6]) [nM]	Binder
	500					40	{Fab4D5 heavy chain (…CDKTH)}-IEDICLPRWGCLWE (Fab, part only; not given: carrier Fab4D5 heavy and light chains, not shown: another chain or arm of the molecule; large carriers, disulfide 5-11) [AB.Fab4D5-H8]
	500						{Fab4D5 heavy chain (…CDKTH)}-DICLPRWGCLWED (Fab, part only; not given: carrier Fab4D5 heavy and light chains, not shown: another chain or arm of the molecule; large carriers, disulfide 3-9) [AB.Fab4D5-H4]
